Source: PMC3449402

Biological target: MAb<EGFR> (human)
Assay: SPR

## soluble construct of the FcγRIIIa ectodomain (from UniProt P08637 17-208) (receptor)
  Kd: 120 nM
